Results as given in PMC12125552.

Tests used:
[1] = biological target: DdMyo7 short heavy meromyosin forced-dimer GFP (shHMM-FD-GFP) (Dictyostelium | not stated)
[2] = biological target: DdMyo7 long heavy meromyosin (lnHMM), FLAG-tagged (Dictyostelium); assay: co-IP; lnHMM (FLAG) precipitated with anti-Flag beads from a MgATP-released, myosin-enriched cytoskeletal fraction of talA null cells; washed in Flag buffer (25 mM Hepes pH 7.4, 300 mM NaCl, 10 mM MgCl2 and 5 mM EGTA, or 2 mM CaCl2); eluted with Flag peptide; gel stained with Coomassie or Sypro Ruby, densitometry normalised to molecular weights; lower band identified by mass spectrometry
Chain of DdMyo7 long heavy meromyosin (lnHMM), FLAG-tagged (Dictyostelium) (Q9U1M8 686-725): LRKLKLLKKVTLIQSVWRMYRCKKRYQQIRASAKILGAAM

[3] = biological target: DdMyo7 short heavy meromyosin forced-dimer GFP (shHMM-FD-GFP) (Dictyostelium | not stated); assay: co-IP; as a2, but the resin washed in IP wash buffer + 2 mM CaCl2 (+Ca2+); immunoblot signal normalised for gel load and heavy chain abundance

| velocity of shHMM-FD on F-actin (TIRF motility assay) with 100 μM free Ca2+, against 40.7 nm/s without Ca2+ [1] [nm/s] | stoichiometry N [2] [CalB per HC] | reduction of immunoblot signal with Ca2+ [3] [%] | Substance |
| --- | --- | --- | --- |
| 23.6 | 2.01 |  | Dictyostelium CaM-like protein CalB (natural protein) |
|  |  | 75.1 | FLAG-CalB (natural protein) |
